In the supplement of paper PMC10567573:
± gives the standard deviation.

Test: protein stability index of a GFP-peptide fusion (GPS, HEK-293T) (PSI 1-6); higher = more stable
Conditions: c terminus: a fixed tail appended
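Note: 24-mer peptide tiles fused after GFP, lentivirally expressed, FACS-sorted into six equal bins by GFP/DsRed ratio, decoded by Illumina sequencing, PSI is the read-weighted mean bin number.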

| Sequence | protein stability index (treatment: DMSO) | protein stability index (treatment: MLN4924 1 uM, 8 h) |
| --- | --- | --- |
| SPSNVQKWLLWTEHQYRLPPMGKA [SPDEF] | 2.42 ± 0.2 | 2.61 ± 0.19 |
| FPSLQVTAILIECGADVNVRDSDD [FEM1C] | 2.44 ± 0.18 | 2.37 ± 0.39 |
| AGQVTALPVNSPMNKGDTEVMKCI [CHGA] | 4.12 ± 0.34 | 4.57 ± 0.22 |
| LDVVDNQTEKLDTNITEVDAASVY [CASP6] | 5.06 ± 0.15 | 5.25 ± 0.15 |
| WTMQAYERNFWDPSPQLDTQQEIK [WDR41] | 3.16 ± 0.19 | 3.46 ± 0.47 |
| RPPFETTNLKETYRCIREARYTMP [PLK2] | 2.72 ± 0.47 | 2.31 ± 0.26 |
| FGVAVVITNQVVAQVDGAAMFAAD [RAD51] | 3.26 ± 0.59 | 2.96 ± 0.62 |
| LYFKDKIFNVAIPRFHMACPTFRV [FBXO3] | 2.98 ± 0.92 | 2.65 ± 0.68 |
| VESSLDKVVLSDAYAHPQQKVAVY [TRADD] | 2.88 ± 0.29 | 3.26 ± 0.12 |
| GPLAETTEDFWRMLWEHNSTIVVM [PTPRD] | 2.48 ± 0.42 | 2.4 ± 0.33 |
| TETQRLGLAMALEPNTTFLRKSLK [FANCE] | 4.05 ± 0.19 | 4.14 ± 0.16 |
| AILLDAHHKTYDPTYSDFCQFRPP [VDR] | 2.31 ± 0.2 | 2.34 ± 0.29 |
